Assay results from PMC6114778, “Divalent cation and chloride ion sites of chicken acid sensing ion channel 1a elucidated by x-ray crystallography” (PLoS ONE, 2018).

What was measured:
[1] = target: the molecule itself; experiment: crystal structure; Δ25 crystals grown at high pH (Tris pH 8.5) with BaCl2, soaked in 50 mM BaCl2 or 150 mM NaBr; space group P212121; resting state; anomalous diffraction
[2] = target: the molecule itself; experiment: crystal structure; Δ13 crystals grown at 20°C, HEPES pH 6.9, sodium formate, PEG 3,350, soaked in 50 mM BaCl2; space group H3; desensitized state; anomalous diffraction

Protein | binding result [1] | binding result [2]
chicken ASIC1a Δ25 crystallization construct (residues 25-463 of chicken ASIC1) (domain or fragment, UniProt Q1XA76 25-463, looked up, chicken ASIC1 (acid sensing ion channel 1a), residues 25-463; 24 residues removed from the amino-terminus and 64 from the carboxy-terminus; Homotrimeric channel; three subunits around a molecular 3-fold axis in the P212121 crystals; also called resting channel; cASIC1a) SSTLHGISHIFSYERLSLKRVVWALCFMGSLALLALVCTNRIQYYFLYPHVTKLDEVAATRLTFPAVTFCNLNEFRFSRVTKNDLYHAGELLALLNNRYEIPDTQTADEKQLEILQDKANFRNFKPKPFNMLEFYDRAGHDIREMLLSCFFRGEQCSPEDFKVVFTRYGKCYTFNAGQDGKPRLITMKGGTGNGLEIMLDIQQDEYLPVWGETDETSFEAGIKVQIHSQDEPPLIDQLGFGVAPGFQTFVSCQEQRLIYLPPPWGDCKATTGDSEFYDTYSITACRIDCETRYLVENCNCRMVHMPGDAPYCTPEQYKECADPALDFLVEKDNEYCVCEMPCNVTRYGKELSMVKIPSKASAKYLAKKYNKSEQYIGENILVLDIFFEALNYETIEQKKAYEVAGLLGDIGGQMGLFIGASILTVLELFDYAYEVIKHR | binds | 
chicken ASIC1a Δ13 crystallization construct (residues 14-463 of chicken ASIC1) (domain or fragment, UniProt Q1XA76 14-463, looked up, chicken ASIC1 (acid sensing ion channel 1a), residues 14-463; 13 residues removed from the amino-terminus and 64 from the carboxy-terminus; Homotrimeric channel; crystals in space group H3; also called desensitized channel; cASIC1a) GQPVSIQAFASSSTLHGISHIFSYERLSLKRVVWALCFMGSLALLALVCTNRIQYYFLYPHVTKLDEVAATRLTFPAVTFCNLNEFRFSRVTKNDLYHAGELLALLNNRYEIPDTQTADEKQLEILQDKANFRNFKPKPFNMLEFYDRAGHDIREMLLSCFFRGEQCSPEDFKVVFTRYGKCYTFNAGQDGKPRLITMKGGTGNGLEIMLDIQQDEYLPVWGETDETSFEAGIKVQIHSQDEPPLIDQLGFGVAPGFQTFVSCQEQRLIYLPPPWGDCKATTGDSEFYDTYSITACRIDCETRYLVENCNCRMVHMPGDAPYCTPEQYKECADPALDFLVEKDNEYCVCEMPCNVTRYGKELSMVKIPSKASAKYLAKKYNKSEQYIGENILVLDIFFEALNYETIEQKKAYEVAGLLGDIGGQMGLFIGASILTVLELFDYAYEVIKHR |  | binds
